# “And” between values parts separate entries of the source, which are not always exact repeats. Identical values can stand only once.
# Target: feline FcRn (FCN-F82W3, Acrobiosystems) (feline)
# Assay: SPR Carterra, IgG coupled, pH 6.0
Binder,Kd,koff,kon
"anti-NGF feline IgG1a, Fc variant S426L, T289H (antibody, part only; not given: Anti-NGF variable domains, not shown: another chain or arm of the molecule; small tags and cut ends) Fc: PPEMLGGPSIFIFPPKPKDTLSISRTPEVTCLVVDLGPDDSDVQITWFVDNTQVYTAKHSPREEQFNSTYRVVSVLPILHQDWLKGKEFKCKVNSKSLPSPIERTISKAKGQPHEPQVYVLPPAQEELSRNKVSVTCLIKSFHPPDIAVEWEITGQPEPENNYRTTPPQLDSDGTYFVYSKLSVDRSHWQRGNTYTCLVSHEALHSHHTQKSLTQSPGK",115 nM,0.0622 s⁻¹,542000 M⁻¹ s⁻¹
"anti-NGF feline IgG1a, Fc variant S434Y (antibody, part only; not given: Anti-NGF variable domains, not shown: another chain or arm of the molecule; small tags and cut ends) Fc: PPEMLGGPSIFIFPPKPKDTLSISRTPEVTCLVVDLGPDDSDVQITWFVDNTQVYTAKTSPREEQFNSTYRVVSVLPILHQDWLKGKEFKCKVNSKSLPSPIERTISKAKGQPHEPQVYVLPPAQEELSRNKVSVTCLIKSFHPPDIAVEWEITGQPEPENNYRTTPPQLDSDGTYFVYSKLSVDRSHWQRGNTYTCSVSHEALHYHHTQKSLTQSPGK",5.2 nM,0.00629 s⁻¹,1.22e+06 M⁻¹ s⁻¹
"anti-NGF feline IgG1a, Fc variant R334D, T437L (antibody, part only; not given: anti-NGF variable domains, light chain, not shown: another chain or arm of the molecule; small tags and cut ends) Fc: PPEMLGGPSIFIFPPKPKDTLSISRTPEVTCLVVDLGPDDSDVQITWFVDNTQVYTAKTSPREEQFNSTYRVVSVLPILHQDWLKGKEFKCKVNSKSLPSPIEDTISKAKGQPHEPQVYVLPPAQEELSRNKVSVTCLIKSFHPPDIAVEWEITGQPEPENNYRTTPPQLDSDGTYFVYSKLSVDRSHWQRGNTYTCSVSHEALHSHHLQKSLTQSPGK",95.7 nM,0.0437 s⁻¹,457000 M⁻¹ s⁻¹
"anti-NGF feline IgG1a, Fc variant S252Y, Q311L (antibody, part only; not given: anti-NGF variable domains, not shown: another chain or arm of the molecule; small tags and cut ends) Fc: PPEMLGGPSIFIFPPKPKDTLYISRTPEVTCLVVDLGPDDSDVQITWFVDNTQVYTAKTSPREEQFNSTYRVVSVLPILHLDWLKGKEFKCKVNSKSLPSPIERTISKAKGQPHEPQVYVLPPAQEELSRNKVSVTCLIKSFHPPDIAVEWEITGQPEPENNYRTTPPQLDSDGTYFVYSKLSVDRSHWQRGNTYTCSVSHEALHSHHTQKSLTQSPGK",7 nM,0.00516 s⁻¹,740000 M⁻¹ s⁻¹
"anti-NGF feline IgG1a, Fc variant S434Y, S254R (antibody, part only; not given: anti-NGF variable domains, light chain, not shown: another chain or arm of the molecule; small tags and cut ends) Fc: PPEMLGGPSIFIFPPKPKDTLSIRRTPEVTCLVVDLGPDDSDVQITWFVDNTQVYTAKTSPREEQFNSTYRVVSVLPILHQDWLKGKEFKCKVNSKSLPSPIERTISKAKGQPHEPQVYVLPPAQEELSRNKVSVTCLIKSFHPPDIAVEWEITGQPEPENNYRTTPPQLDSDGTYFVYSKLSVDRSHWQRGNTYTCSVSHEALHYHHTQKSLTQSPGK",2.1 nM,0.00568 s⁻¹,2.75e+06 M⁻¹ s⁻¹
"anti-NGF feline IgG1a, Fc variant S252Y (antibody, part only; not given: Anti-NGF variable domains, not shown: another chain or arm of the molecule; small tags and cut ends) Fc: PPEMLGGPSIFIFPPKPKDTLYISRTPEVTCLVVDLGPDDSDVQITWFVDNTQVYTAKTSPREEQFNSTYRVVSVLPILHQDWLKGKEFKCKVNSKSLPSPIERTISKAKGQPHEPQVYVLPPAQEELSRNKVSVTCLIKSFHPPDIAVEWEITGQPEPENNYRTTPPQLDSDGTYFVYSKLSVDRSHWQRGNTYTCSVSHEALHSHHTQKSLTQSPGK",9.8 nM,0.0095 s⁻¹,974000 M⁻¹ s⁻¹
"anti-NGF feline IgG1a, Fc variant S428Y, S254R (antibody, part only; not given: Anti-NGF variable domains, not shown: another chain or arm of the molecule; small tags and cut ends) Fc: PPEMLGGPSIFIFPPKPKDTLSIRRTPEVTCLVVDLGPDDSDVQITWFVDNTQVYTAKTSPREEQFNSTYRVVSVLPILHQDWLKGKEFKCKVNSKSLPSPIERTISKAKGQPHEPQVYVLPPAQEELSRNKVSVTCLIKSFHPPDIAVEWEITGQPEPENNYRTTPPQLDSDGTYFVYSKLSVDRSHWQRGNTYTCSVYHEALHSHHTQKSLTQSPGK",48.1 nM,0.0265 s⁻¹,552000 M⁻¹ s⁻¹
"anti-NGF feline IgG1a, Fc variant S428H, T289H (antibody, part only; not given: anti-NGF variable domains, light chain, not shown: another chain or arm of the molecule; small tags and cut ends) Fc: PPEMLGGPSIFIFPPKPKDTLSISRTPEVTCLVVDLGPDDSDVQITWFVDNTQVYTAKHSPREEQFNSTYRVVSVLPILHQDWLKGKEFKCKVNSKSLPSPIERTISKAKGQPHEPQVYVLPPAQEELSRNKVSVTCLIKSFHPPDIAVEWEITGQPEPENNYRTTPPQLDSDGTYFVYSKLSVDRSHWQRGNTYTCSVHHEALHSHHTQKSLTQSPGK",149 nM,0.0526 s⁻¹,352000 M⁻¹ s⁻¹
"anti-NGF feline IgG1a, Fc variant S252Y, Q311R (antibody, part only; not given: anti-NGF variable domains, not shown: another chain or arm of the molecule; small tags and cut ends) Fc: PPEMLGGPSIFIFPPKPKDTLYISRTPEVTCLVVDLGPDDSDVQITWFVDNTQVYTAKTSPREEQFNSTYRVVSVLPILHRDWLKGKEFKCKVNSKSLPSPIERTISKAKGQPHEPQVYVLPPAQEELSRNKVSVTCLIKSFHPPDIAVEWEITGQPEPENNYRTTPPQLDSDGTYFVYSKLSVDRSHWQRGNTYTCSVSHEALHSHHTQKSLTQSPGK",6.9 nM,0.0064 s⁻¹,926000 M⁻¹ s⁻¹
"anti-NGF feline IgG1a, Fc variant S426L, S428H (antibody, part only; not given: anti-NGF variable domains, light chain, not shown: another chain or arm of the molecule; small tags and cut ends) Fc: PPEMLGGPSIFIFPPKPKDTLSISRTPEVTCLVVDLGPDDSDVQITWFVDNTQVYTAKTSPREEQFNSTYRVVSVLPILHQDWLKGKEFKCKVNSKSLPSPIERTISKAKGQPHEPQVYVLPPAQEELSRNKVSVTCLIKSFHPPDIAVEWEITGQPEPENNYRTTPPQLDSDGTYFVYSKLSVDRSHWQRGNTYTCLVHHEALHSHHTQKSLTQSPGK",100 nM,0.0445 s⁻¹,445000 M⁻¹ s⁻¹
"anti-NGF feline IgG1a, Fc variant R334D, R301L (antibody, part only; not given: anti-NGF variable domains, light chain, not shown: another chain or arm of the molecule; small tags and cut ends) Fc: PPEMLGGPSIFIFPPKPKDTLSISRTPEVTCLVVDLGPDDSDVQITWFVDNTQVYTAKTSPREEQFNSTYLVVSVLPILHQDWLKGKEFKCKVNSKSLPSPIEDTISKAKGQPHEPQVYVLPPAQEELSRNKVSVTCLIKSFHPPDIAVEWEITGQPEPENNYRTTPPQLDSDGTYFVYSKLSVDRSHWQRGNTYTCSVSHEALHSHHTQKSLTQSPGK",90.7 nM,0.0417 s⁻¹,460000 M⁻¹ s⁻¹

# Target: feline FcRn (IgG receptor FcRn large subunit p51 with feline beta-2-microglobulin) (feline)
# Assay: SPR Biacore 8K, Fc captured by SASA tag on BSA, pH 6.0
Binder,Kd,koff,kon
"feline IgG1a Fc variant S252W (CH2-CH3) with SASA tag (Fc fusion, part only; not given: SASA tag, not shown: another chain or arm of the molecule; small tags and cut ends) Fc: PPEMLGGPSIFIFPPKPKDTLWISRTPEVTCLVVDLGPDDSDVQITWFVDNTQVYTAKTSPREEQFNSTYRVVSVLPILHQDWLKGKEFKCKVNSKSLPSPIERTISKAKGQPHEPQVYVLPPAQEELSRNKVSVTCLIKSFHPPDIAVEWEITGQPEPENNYRTTPPQLDSDGTYFVYSKLSVDRSHWQRGNTYTCSVSHEALHSHHTQKSLTQSPGK",23.5 nM and 23.3 nM,0.00538 s⁻¹ and 0.00545 s⁻¹,228000 M⁻¹ s⁻¹ and 234000 M⁻¹ s⁻¹
"feline IgG1a Fc variant S428L (CH2-CH3) with SASA tag (Fc fusion, part only; not given: SASA tag, not shown: another chain or arm of the molecule; small tags and cut ends) Fc: PPEMLGGPSIFIFPPKPKDTLSISRTPEVTCLVVDLGPDDSDVQITWFVDNTQVYTAKTSPREEQFNSTYRVVSVLPILHQDWLKGKEFKCKVNSKSLPSPIERTISKAKGQPHEPQVYVLPPAQEELSRNKVSVTCLIKSFHPPDIAVEWEITGQPEPENNYRTTPPQLDSDGTYFVYSKLSVDRSHWQRGNTYTCSVLHEALHSHHTQKSLTQSPGK",485 nM and 763 nM,0.0788 s⁻¹ and 0.0803 s⁻¹,162000 M⁻¹ s⁻¹ and 105000 M⁻¹ s⁻¹
"feline IgG1a Fc variant S434W (CH2-CH3) with SASA tag (Fc fusion, part only; not given: SASA tag, not shown: another chain or arm of the molecule; small tags and cut ends) Fc: PPEMLGGPSIFIFPPKPKDTLSISRTPEVTCLVVDLGPDDSDVQITWFVDNTQVYTAKTSPREEQFNSTYRVVSVLPILHQDWLKGKEFKCKVNSKSLPSPIERTISKAKGQPHEPQVYVLPPAQEELSRNKVSVTCLIKSFHPPDIAVEWEITGQPEPENNYRTTPPQLDSDGTYFVYSKLSVDRSHWQRGNTYTCSVSHEALHWHHTQKSLTQSPGK",55.6 nM and 50.2 nM,0.0175 s⁻¹ and 0.0202 s⁻¹,314000 M⁻¹ s⁻¹ and 402000 M⁻¹ s⁻¹
"feline IgG1a Fc variant S252F (CH2-CH3) with SASA tag (Fc fusion, part only; not given: SASA tag, not shown: another chain or arm of the molecule; small tags and cut ends) Fc: PPEMLGGPSIFIFPPKPKDTLFISRTPEVTCLVVDLGPDDSDVQITWFVDNTQVYTAKTSPREEQFNSTYRVVSVLPILHQDWLKGKEFKCKVNSKSLPSPIERTISKAKGQPHEPQVYVLPPAQEELSRNKVSVTCLIKSFHPPDIAVEWEITGQPEPENNYRTTPPQLDSDGTYFVYSKLSVDRSHWQRGNTYTCSVSHEALHSHHTQKSLTQSPGK",470 nM and 492 nM,0.0957 s⁻¹ and 0.101 s⁻¹,203000 M⁻¹ s⁻¹ and 205000 M⁻¹ s⁻¹
"feline IgG1a Fc variant S434F (CH2-CH3) with SASA tag (Fc fusion, part only; not given: SASA tag, not shown: another chain or arm of the molecule; small tags and cut ends) Fc: PPEMLGGPSIFIFPPKPKDTLSISRTPEVTCLVVDLGPDDSDVQITWFVDNTQVYTAKTSPREEQFNSTYRVVSVLPILHQDWLKGKEFKCKVNSKSLPSPIERTISKAKGQPHEPQVYVLPPAQEELSRNKVSVTCLIKSFHPPDIAVEWEITGQPEPENNYRTTPPQLDSDGTYFVYSKLSVDRSHWQRGNTYTCSVSHEALHFHHTQKSLTQSPGK",41.7 nM and 43.3 nM,0.0158 s⁻¹ and 0.0161 s⁻¹,378000 M⁻¹ s⁻¹ and 371000 M⁻¹ s⁻¹
"feline IgG1a Fc variant S252Y (CH2-CH3) with SASA tag (Fc fusion, part only; not given: SASA tag, not shown: another chain or arm of the molecule; small tags and cut ends) Fc: PPEMLGGPSIFIFPPKPKDTLYISRTPEVTCLVVDLGPDDSDVQITWFVDNTQVYTAKTSPREEQFNSTYRVVSVLPILHQDWLKGKEFKCKVNSKSLPSPIERTISKAKGQPHEPQVYVLPPAQEELSRNKVSVTCLIKSFHPPDIAVEWEITGQPEPENNYRTTPPQLDSDGTYFVYSKLSVDRSHWQRGNTYTCSVSHEALHSHHTQKSLTQSPGK",103 nM and 102 nM,0.0265 s⁻¹ and 0.0263 s⁻¹,257000 M⁻¹ s⁻¹ and 258000 M⁻¹ s⁻¹
"feline IgG1a Fc variant S428M (CH2-CH3) with SASA tag (Fc fusion, part only; not given: SASA tag, not shown: another chain or arm of the molecule; small tags and cut ends) Fc: PPEMLGGPSIFIFPPKPKDTLSISRTPEVTCLVVDLGPDDSDVQITWFVDNTQVYTAKTSPREEQFNSTYRVVSVLPILHQDWLKGKEFKCKVNSKSLPSPIERTISKAKGQPHEPQVYVLPPAQEELSRNKVSVTCLIKSFHPPDIAVEWEITGQPEPENNYRTTPPQLDSDGTYFVYSKLSVDRSHWQRGNTYTCSVMHEALHSHHTQKSLTQSPGK",603 nM,0.1 s⁻¹,166000 M⁻¹ s⁻¹
"feline IgG1a Fc variant S428Y (CH2-CH3) with SASA tag (Fc fusion, part only; not given: SASA tag, not shown: another chain or arm of the molecule; small tags and cut ends) Fc: PPEMLGGPSIFIFPPKPKDTLSISRTPEVTCLVVDLGPDDSDVQITWFVDNTQVYTAKTSPREEQFNSTYRVVSVLPILHQDWLKGKEFKCKVNSKSLPSPIERTISKAKGQPHEPQVYVLPPAQEELSRNKVSVTCLIKSFHPPDIAVEWEITGQPEPENNYRTTPPQLDSDGTYFVYSKLSVDRSHWQRGNTYTCSVYHEALHSHHTQKSLTQSPGK",528 nM and 565 nM,0.103 s⁻¹ and 0.105 s⁻¹,195000 M⁻¹ s⁻¹ and 187000 M⁻¹ s⁻¹

# Reference: US20250304650A1
